Data: patent US20250161474A1 (SICHUAN KELUN BIOTECH BIOPHARMACEUTICAL, published 2025)

B1: BsAb 49B (bispecific antibody, human IgG1, kappa, L234A L235A)
light: DIQMTQSPSSLSASVGDRVTITCKSSQSLLYTSSQKNYLAWYQQKPGKAPKLLIYWASTRESGVPSRFSGSGSGTDFTLTISSLQPEDFATYYCQQYYAYPWTFGQGTKVEIKRTVAAPSVFIFPPSDEQLKSGTASVVCLLNNFYPREAKVQWKVDNALQSGNSQESVTEQDSKDSTYSLSSTLTLSKADYEKHKVYACEVTHQGLSSPVTKSFNRGEC
heavy: not shown
chain: AIQLTQSPSSLSASVGDRVTITCRASQDISSALVWYQQKPGKAPKLLIYDASSLESGVPSRFSGSESGTDFTLTISSLQPEDFATYYCQQFNSYPLTFGGGTKVEIKGGGGSGGGGSGGGGSQVQLVESGGGVVQPGRSLRLSCAASGFTFSTYGMHWVRQAPGKGLEWVAVIWDDGSYKYYGDSVKGRFTISRDNSKNTLYLQMNSLRAEDTAVYYCARDGITMVRGVMKDYFDYWGQGTLVTVSSGGGGDKTHTCPPCPAPEAAGGPSVFLFPPKPKDTLMISRTPEVTCVVVDVSHEDPEVKFNWYVDGVEVHNAKTKPREEQYNSTYRVVSVLTVLHQDWLNGKEYKCKVSNKALAAPIEKTISKAKGQPREPQVCTLPPSRDELTKNQVSLSCAVKGFYPSDIAVEWESNGQPENNYKTTPPVLDSDGSFFLVSKLTVDKSRWQQGNVFSCSVMHEALHNHYTQKSLSLSPGK
notes: Fab-scFv-Fc (KIH) format; anti-c-MET Fab, anti-EGFR scFv; also called BsB 49B; bispecific antibody 49B
B2: ADC 55B-A-14 (bispecific antibody, human IgG1, kappa, L234A L235A)
light: DIQMTQSPSSLSASVGDRVTITCKSSQSLLYTSSQKNYLAWYQQKPGKAPKLLIYWASTRESGVPSRFSGSGSGTDFTLTISSLQPEDFATYYCQQYYAYPWTFGQGTKVEIKRTVAAPSVFIFPPSDEQLKSGTASVVCLLNNFYPREAKVQWKVDNALQSGNSQESVTEQDSKDSTYSLSSTLTLSKADYEKHKVYACEVTHQGLSSPVTKSFNRGEC
heavy: not shown
chain 1: AIQLTQSPSSLSASVGDRVTITCRASQDISSALVWYQQKPGKAPKLLIYDASSLESGVPSRFSGSESGTDFTLTISSLQPEDFATYYCQQFNSYPLTFGGGTKVEIKSSASTKGPSVFPLAPSSKSTSGGTAALGCLVKDYFPEPVTVSWNSGALTSGVHTFPAVLQSSGLYSLSSVVTVPSSSLGTQTYICNVNHKPSNTKVDKKVEPKSC
chain 2: QVQLVESGGGVVQPGRSLRLSCAASGFTFSTYGMHWVRQAPGKGLEWVAVIWDDGSYKYYGDSVKGRFTISRDNSKNTLYLQMNSLRAEDTAVYYCARDGITMVRGVMKDYFDYWGQGTLVTVSSASVAAPSVFIFPPSDEQLKSGTASVVCLLNNFYPREAKVQWKVDNALQSGNSQESVTEQDSKDSTYSLSSTLTLSKADYEKHKVYACEVTHQGLSSPVTKSFNRGECDKTHTCPPCPAPEAAGGPSVFLFPPKPKDTLMISRTPEVTCVVVDVSHEDPEVKFNWYVDGVEVHNAKTKPREEQYNSTYRVVSVLTVLHQDWLNGKEYKCKVSNKALAAPIEKTISKAKGQPREPQVCTLPPSRDELTKNQVSLSCAVKGFYPSDIAVEWESNGQPENNYKTTPPVLDSDGSFFLVSKLTVDKSRWQQGNVFSCSVMHEALHNHYTQKSLSLSPGK
modifications: linker-payload A-14 on reduced Cys sulfhydryls (sites not given); DAR of the whole ADC approximately 8
B3: ADC 07B-A-05 (bispecific antibody, human IgG1, kappa)
light: DIQMTQSPSSLSASVGDRVTITCKSSQSLLYTSSQKNYLAWYQQKPGKAPKLLIYWASTRESGVPSRFSGSGSGTDFTLTISSLQPEDFATYYCQQYYAYPWTFGQGTKVEIKRTVAAPSVFIFPPSDEQLKSGTASVVCLLNNFYPREAKVQWKVDNALQSGNSQESVTEQDSKDSTYSLSSTLTLSKADYEKHKVYACEVTHQGLSSPVTKSFNRGEC
heavy: not shown
chain: AIQLTQSPSSLSASVGDRVTITCRASQDISSALVWYQQKPGKAPKLLIYDASSLESGVPSRFSGSESGTDFTLTISSLQPEDFATYYCQQFNSYPLTFGGGTKVEIKGGGGSGGGGSGGGGSQVQLVESGGGVVQPGRSLRLSCAASGFTFSTYGMHWVRQAPGKGLEWVAVIWDDGSYKYYGDSVKGRFTISRDNSKNTLYLQMNSLRAEDTAVYYCARDGITMVRGVMKDYFDYWGQGTLVTVSSGGGGDKTHTCPPCPAPELLGGPSVFLFPPKPKDTLMISRTPEVTCVVVDVSHEDPEVKFNWYVDGVEVHNAKTKPREEQYNSTYRVVSVLTVLHQDWLNGKEYKCKVSNKALPAPIEKTISKAKGQPREPQVCTLPPSREEMTKNQVSLSCAVKGFYPSDIAVEWESNGQPENNYKTTPPVLDSDGSFFLVSKLTVDKSRWQQGNVFSCSVMHEALHNHYTQKSLSLSPGK
modifications: linker-payload A-05 on reduced Cys sulfhydryls (sites not given); DAR of the whole ADC approximately 6
B4: BsAb 07B (bispecific antibody, human IgG1, kappa)
light: DIQMTQSPSSLSASVGDRVTITCKSSQSLLYTSSQKNYLAWYQQKPGKAPKLLIYWASTRESGVPSRFSGSGSGTDFTLTISSLQPEDFATYYCQQYYAYPWTFGQGTKVEIKRTVAAPSVFIFPPSDEQLKSGTASVVCLLNNFYPREAKVQWKVDNALQSGNSQESVTEQDSKDSTYSLSSTLTLSKADYEKHKVYACEVTHQGLSSPVTKSFNRGEC
heavy: not shown
chain: AIQLTQSPSSLSASVGDRVTITCRASQDISSALVWYQQKPGKAPKLLIYDASSLESGVPSRFSGSESGTDFTLTISSLQPEDFATYYCQQFNSYPLTFGGGTKVEIKGGGGSGGGGSGGGGSQVQLVESGGGVVQPGRSLRLSCAASGFTFSTYGMHWVRQAPGKGLEWVAVIWDDGSYKYYGDSVKGRFTISRDNSKNTLYLQMNSLRAEDTAVYYCARDGITMVRGVMKDYFDYWGQGTLVTVSSGGGGDKTHTCPPCPAPELLGGPSVFLFPPKPKDTLMISRTPEVTCVVVDVSHEDPEVKFNWYVDGVEVHNAKTKPREEQYNSTYRVVSVLTVLHQDWLNGKEYKCKVSNKALPAPIEKTISKAKGQPREPQVCTLPPSREEMTKNQVSLSCAVKGFYPSDIAVEWESNGQPENNYKTTPPVLDSDGSFFLVSKLTVDKSRWQQGNVFSCSVMHEALHNHYTQKSLSLSPGK
notes: Fab-scFv-Fc (KIH) format; anti-c-MET Fab, anti-EGFR scFv; expressed in CHO-K1; also called bispecific antibody 07B
B5: BsAb 10B (bispecific antibody, human IgG1, kappa)
light: not shown
heavy: not shown
chain: DIQMTQSPSSLSASVGDRVTITCKSSQSLLYTSSQKNYLAWYQQKPGKAPKLLIYWASTRESGVPSRFSGSGSGTDFTLTISSLQPEDFATYYCQQYYAYPWTFGQGTKVEIKGGGGSGGGGSGGGGSEVQLVESGGGLVQPGGSLRLSCAASGYTFTSYWLHWVRQAPGKGLEWVGMIDPSNSDTRFNPNFKDRFTISADTSKNTAYLQMNSLRAEDTAVYYCATYRSYVTPLDYWGQGTLVTVSSGGGGDKTHTCPPCPAPELLGGPSVFLFPPKPKDTLMISRTPEVTCVVVDVSHEDPEVKFNWYVDGVEVHNAKTKPREEQYNSTYRVVSVLTVLHQDWLNGKEYKCKVSNKALPAPIEKTISKAKGQPREPQVCTLPPSREEMTKNQVSLSCAVKGFYPSDIAVEWESNGQPENNYKTTPPVLDSDGSFFLVSKLTVDKSRWQQGNVFSCSVMHEALHNHYTQKSLSLSPGK
notes: Fab-scFv-Fc (KIH) format; anti-EGFR Fab, anti-c-MET scFv; also called bispecific antibody 10B
B6: BsAb 38B (bispecific antibody, human IgG1, kappa, L234A L235A)
light: not shown
heavy: not shown
chain: DIQMTQSPSSLSASVGDRVTITCKSSQSLLYTSSQKNYLAWYQQKPGKAPKLLIYWASTRESGVPSRFSGSGSGTDFTLTISSLQPEDFATYYCQQYYAYPWTFGQGTKVEIKGGGGSGGGGSGGGGSEVQLVESGGGLVQPGGSLRLSCAASGYTFTSYWLHWVRQAPGKGLEWVGMIDPSNSDTRFNPNFKDRFTISADTSKNTAYLQMNSLRAEDTAVYYCATYRSYVTPLDYWGQGTLVTVSSGGGGDKTHTCPPCPAPEAAGGPSVFLFPPKPKDTLMISRTPEVTCVVVDVSHEDPEVKFNWYVDGVEVHNAKTKPREEQYNSTYRVVSVLTVLHQDWLNGKEYKCKVSNKALAAPIEKTISKAKGQPREPQVCTLPPSRDELTKNQVSLSCAVKGFYPSDIAVEWESNGQPENNYKTTPPVLDSDGSFFLVSKLTVDKSRWQQGNVFSCSVMHEALHNHYTQKSLSLSPGK
notes: Fab-scFv-Fc (KIH) format; anti-EGFR Fab, anti-c-MET scFv; also called bispecific antibody 38B
B7: ADC 56B-A-14 (bispecific antibody)
chain 1: not shown
chain 2: DIQMTQSPSSLSASVGDRVTITCKSSQSLLYTSSQKNYLAWYQQKPGKAPKLLIYWASTRESGVPSRFSGSGSGTDFTLTISSLQPEDFATYYCQQYYAYPWTFGQGTKVEIKGGGGSGGGGSGGGGSEVQLVESGGGLVQPGGSLRLSCAASGYTFTSYWLHWVRQAPGKGLEWVGMIDPSNSDTRFNPNFKDRFTISADTSKNTAYLQMNSLRAEDTAVYYCATYRSYVTPLDYWGQGTLVTVSSGGGGDKTHTCPPCPAPEAAGGPSVFLFPPKPKDTLMISRTPEVTCVVVDVSHEDPEVKFNWYVDGVEVHNAKTKPREEQYNSTYRVVSVLTVLHQDWLNGKEYKCKVSNKALAAPIEKTISKAKGQPREPQVCTLPPSRDELTKNQVSLSCAVKGFYPSDIAVEWESNGQPENNYKTTPPVLDSDGSFFLVSKLTVDKSRWQQGNVFSCSVMHEALHNHYTQKSLSLSPGK
modifications: linker-payload A-14 on reduced Cys sulfhydryls (sites not given); DAR of the whole ADC approximately 4
B8: ADC 38B-A-14 (bispecific antibody, human IgG1, kappa, L234A L235A)
light: not shown
heavy: not shown
chain: DIQMTQSPSSLSASVGDRVTITCKSSQSLLYTSSQKNYLAWYQQKPGKAPKLLIYWASTRESGVPSRFSGSGSGTDFTLTISSLQPEDFATYYCQQYYAYPWTFGQGTKVEIKGGGGSGGGGSGGGGSEVQLVESGGGLVQPGGSLRLSCAASGYTFTSYWLHWVRQAPGKGLEWVGMIDPSNSDTRFNPNFKDRFTISADTSKNTAYLQMNSLRAEDTAVYYCATYRSYVTPLDYWGQGTLVTVSSGGGGDKTHTCPPCPAPEAAGGPSVFLFPPKPKDTLMISRTPEVTCVVVDVSHEDPEVKFNWYVDGVEVHNAKTKPREEQYNSTYRVVSVLTVLHQDWLNGKEYKCKVSNKALAAPIEKTISKAKGQPREPQVCTLPPSRDELTKNQVSLSCAVKGFYPSDIAVEWESNGQPENNYKTTPPVLDSDGSFFLVSKLTVDKSRWQQGNVFSCSVMHEALHNHYTQKSLSLSPGK
modifications: linker-payload A-14 on reduced Cys sulfhydryls (sites not given); DAR of the whole ADC approximately 6

Assays:
human c-MET [1] = molecular target: T1, human c-MET (human, UniProt P08581 25-1390); assay: flow cytometry on MKN45 cells (highly express c-MET)
T1 construct: whole, on cells; also called tyrosine protein kinase Met; hepatocyte growth factor receptor
Excerpt: (§1) A flow cytometer (Beckman, model Cytoflex) was used to detect the interaction between anti-human EGFR/c-MET bispecific antibodies and their conjugates and human gastric cancer cells MKN45 (Nanjing Cobioer Biosciences) and human gastric cancer cells overexpressing human EGFR MKN45-EGFR (Kelun-Biotech), human lung squamous cell carcinoma EBC-1 (Nanjing Cobioer Biosciences), human lung squamous cell carcinoma EBC-1-EGFR overexpressing human EGFR (Kelun-Biotech), human non-small cell lung cancer cell HCC827 (ATCC™), and human epidermal squamous cell carcinoma cell A431 (Nanjing Cobioer Biosciences). The protocol was as follows.
(§2) The adherent cells were digested with Trypsin-EDTA solution (0.25%) (Shanghai BasalMedia) and the cell density adjusted to 4.0×10⁶ per mL. The cells were washed twice with 1% BSA and resuspended in 1% BSA solution. Then 50 μL cell suspension was added to each well of a 96-well plate (the number of cells was 2×10⁵ per well). The antibody and its conjugate were diluted with 1% BSA (final concentration 10 µg/mL, 3-fold gradient dilution, a total of 11 concentration points). Then 50 μL of the diluted antibody and ADC were added to the wells of the 96-well plate and the plate was incubated at 4° C. for 60 minutes. The wells of the 96-well plate were then washed twice with 1% BSA, 50 μL of diluted secondary antibody was added to each well, and the 96-well plate was incubated at 4° C. for 30 minutes. Then the cells were washed twice with 1% BSA, and the cells were resuspended in 200 μL of 1% BSA and subjected to flow cytometry detection.

human c-MET [2] = molecular target: T1, human c-MET; assay: flow cytometry on EBC-1 cells (highly express c-MET)
Excerpt: as §1, §2

human c-MET [3] = molecular target: T1, human c-MET; assay: cell-based or functional assay

T1 sequence (P08581 25-1390): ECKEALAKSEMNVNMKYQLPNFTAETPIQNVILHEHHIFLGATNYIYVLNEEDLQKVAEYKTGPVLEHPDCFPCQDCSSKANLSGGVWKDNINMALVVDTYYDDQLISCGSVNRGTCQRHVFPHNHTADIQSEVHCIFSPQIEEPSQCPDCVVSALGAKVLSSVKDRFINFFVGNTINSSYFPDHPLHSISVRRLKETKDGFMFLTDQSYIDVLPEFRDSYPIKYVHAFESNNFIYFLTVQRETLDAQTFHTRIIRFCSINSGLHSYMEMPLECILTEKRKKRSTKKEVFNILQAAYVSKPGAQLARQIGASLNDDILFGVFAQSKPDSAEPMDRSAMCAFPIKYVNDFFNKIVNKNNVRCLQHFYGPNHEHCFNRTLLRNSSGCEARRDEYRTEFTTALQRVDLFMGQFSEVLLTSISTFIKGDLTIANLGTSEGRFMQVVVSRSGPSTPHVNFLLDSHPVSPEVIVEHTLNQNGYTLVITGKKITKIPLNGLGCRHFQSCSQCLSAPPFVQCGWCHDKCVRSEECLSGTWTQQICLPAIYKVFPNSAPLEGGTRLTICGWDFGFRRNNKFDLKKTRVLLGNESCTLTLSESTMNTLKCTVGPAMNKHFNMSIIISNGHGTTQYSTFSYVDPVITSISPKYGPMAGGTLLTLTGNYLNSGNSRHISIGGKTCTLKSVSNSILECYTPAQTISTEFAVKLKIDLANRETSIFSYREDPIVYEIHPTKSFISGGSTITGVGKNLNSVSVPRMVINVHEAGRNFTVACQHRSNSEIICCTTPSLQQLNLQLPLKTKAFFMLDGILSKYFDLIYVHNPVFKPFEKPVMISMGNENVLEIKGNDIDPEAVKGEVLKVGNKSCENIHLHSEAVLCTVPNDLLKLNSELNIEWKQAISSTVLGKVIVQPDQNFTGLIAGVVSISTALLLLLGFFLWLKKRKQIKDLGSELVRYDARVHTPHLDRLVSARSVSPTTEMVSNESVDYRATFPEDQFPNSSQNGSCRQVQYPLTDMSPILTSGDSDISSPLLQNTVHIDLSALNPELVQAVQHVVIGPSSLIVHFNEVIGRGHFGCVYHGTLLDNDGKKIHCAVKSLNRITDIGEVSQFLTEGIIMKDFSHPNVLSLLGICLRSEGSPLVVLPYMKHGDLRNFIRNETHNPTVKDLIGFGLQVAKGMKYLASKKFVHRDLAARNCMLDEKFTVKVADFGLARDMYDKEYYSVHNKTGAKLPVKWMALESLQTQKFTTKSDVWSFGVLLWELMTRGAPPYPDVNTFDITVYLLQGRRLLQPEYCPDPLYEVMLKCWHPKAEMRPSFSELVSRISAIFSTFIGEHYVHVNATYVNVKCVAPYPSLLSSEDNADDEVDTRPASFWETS

Row | Binder | EC50 (human c-MET [1]) [nM] | EC50 (human c-MET [2]) [nM] | IC50, in vitro cell killing (CCK8) on EBC-1 cells (human c-MET [3]) [nM] | IC50, in vitro cell killing (CCK8) on MKN45 cells (human c-MET [3]) [nM]
1 | B1 | 0.34 | 1.32 | – | –
2 | B2 | – | – | 0.42 | 0.4
3 | B3 | – | 1.47 | 0.48 | –
4 | B4 | – | 1.46 | – | –
5 | B5 | 1.1 | 1.51 | – | –
6 | B6 | 1.16 | – | – | –
7 | B7 | – | – | 2.95 | 1.17
8 | B8 | – | 1.29 | 1.03 | 0.3
